Reference: patent US20250346673A1 (DUALITY BIOLOGICS SUZHOU, published 2025)

Assays:
cynomolgus BDCA2 [1] = target: T1, cynomolgus BDCA2 (cynomolgus monkey, UniProt A0A2K5UWP4 1-212); test: FACS on 293F-cynoBDCA2 cells; EC50 table under the plot, unit from the x axis (nM)
T1 construct: whole, on cells; also called Cyno BDCA2; cynoBDCA2
T1 sequence: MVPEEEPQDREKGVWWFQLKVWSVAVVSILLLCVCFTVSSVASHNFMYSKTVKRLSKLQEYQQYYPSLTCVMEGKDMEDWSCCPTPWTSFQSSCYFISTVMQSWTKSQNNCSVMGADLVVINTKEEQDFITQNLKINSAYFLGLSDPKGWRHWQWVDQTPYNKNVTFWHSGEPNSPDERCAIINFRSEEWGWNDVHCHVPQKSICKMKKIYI
Procedure: (§1) The cells were recovered and resuspended to 2×10⁶/mL with FACS buffer (PBS+2% FBS). The cells were added to 3799 cell plates (Corning) at 100 μL/well, and the supernatant was discarded after centrifugation at 300 g. The antibodies were serially diluted with FACS buffer (Id.), the diluted antibodies were added to centrifuged cells and the cells were resuspended. The cells were incubated at 4° C. for 1 h. The incubated cells were then centrifuged at […] for 5 min and washed twice with FACS buffer. 100 μL Donkey anti-Mouse IgG (H+L) Highly Cross-Adsorbed Secondary Antibody-Alexa Fluor 488 (Invitrogen, A21202; 1:1000) secondary antibody was added to the cells, which were washed twice with FACS buffer after incubation at 4° C. for 1 h, resuspended with PBS, analyzed with FACS (BD FACS CantoTM II) instrument. The curve was fitted with GraphPad Prism6, and EC₅₀ values were calculated.

human BDCA2 [2] = target: T2, human BDCA2 (human, UniProt Q8WTT0 1-213); test: FACS on CHOK1-hBDCA2 cells; EC50 table under the plot, unit from the x axis (nM)
T2 construct: whole, on cells; also called hBDCA2; Blood dendritic cell antigen 2
T2 sequence (looked up): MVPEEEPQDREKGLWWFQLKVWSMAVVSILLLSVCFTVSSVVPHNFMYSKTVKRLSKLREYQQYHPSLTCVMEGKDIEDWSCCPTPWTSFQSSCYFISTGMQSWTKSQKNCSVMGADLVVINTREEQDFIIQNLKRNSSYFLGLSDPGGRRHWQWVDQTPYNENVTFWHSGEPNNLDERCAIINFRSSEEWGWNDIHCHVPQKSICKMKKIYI
Procedure: as §1

human BDCA2 [3] = target: T2, human BDCA2; test: FACS on CHOK1-hBDCA2 cells; EC50 table under the plot, unit from the x axis (nM) [continued) d.]
Procedure: as §1

[4] = target: T3, Human BDCA2 Fc recombinant protein (human); test: ELISA, coated humanBDCA2 Fc
T3 construct: Human IgG1 Fc N-terminal of the BDCA2 extracellular domain (Asn45-Ile213), fused by a linker; also called BDCA2-Fc protein
Procedure: HumanBDCA2 Fc protein or cynoBDCA2 His protein was diluted with PBS to 1 μg/mL and added to ELISA microplates at 100 μL/well and incubated at 4° C. overnight. The plates were blocked with ELISA blocking solution (PBS phosphate buffer with 1% BSA, pH 7.4, the percentages representing mass percentages) at 37° C. for 2 hours. Sequential 10-fold serial dilutions of antibodies were added at 8 concentrations (0.0001 nM-100 nM, including 0 point control) in total at 100 μL/well. The plates were incubated at 37° C. for 1 hour, then washed 3 times and after anti-mouse IgG (Fab specific)-HRP (Sigma, A3682; 1: 5000 dilution) secondary antibodies were added at 100 μL/well, were incubated at 37° C. for 1 h. The plates were washed 3 times, TMB development fluid (EL0009, Huzhou Ying Chuang Biotechnology) was added at 100 μL/well and 50 μL 1N hydrochloric acid was added after incubation at 37° C. for 10 min to stop the development reaction. OD450 nm values were read with ELISA plate reader and the curve was fitted with GraphPad Prism6, and EC₅₀ values were calculated.

cynomolgus BDCA2 [5] = target: T1, cynomolgus BDCA2; test: FACS on 293F-cynoBDCA2 cells; EC50 table under the plot, unit from the x axis (nM) [continued) d.]
Procedure: as §1

human BDCA2 [6] = target: T2, human BDCA2; test: cell-based or functional assay
human BDCA2 [7] = target: T2, human BDCA2; test: FACS on CHOK1-hBDCA2 cells; EC50 table under the plot, unit from the x axis (nM); remark: listed apart in the source
Procedure: The cells were recovered and resuspended to 2×10⁶/mL with FACS buffer (PBS+2% FBS). The cells were added to 3799 cell plates (Corning) at 100 μL/well, and the supernatant was discarded after centrifugation at 300 g. The antibodies were serially diluted with FACS buffer (Id.), the diluted antibodies were added to centrifuged cells and the cells were resuspended. The cells were incubated at 4° C. for 1 h. The incubated cells were centrifuged at 300 g for 5 min and washed twice with FACS buffer. 100 μL […] anti-Human IgG (H+L) Cross-Adsorbed Secondary Antibody-Alexa Fluor 488 (Sigma, A11013; 1:1000) secondary antibody was added, washed twice with FACS buffer after incubation at 4° C. for 1 h, resuspended with PBS, analyzed with FACS (BD FACS CantoTM II) instrument and curve fitted with GraphPad Prism6, and EC₅₀ values were calculated.

human BDCA2 [8] = target: T2, human BDCA2; test: FACS, CHOK1-humanBDCA2 cells
Procedure: The cells were recovered and resuspended to 2×10⁶/mL with FACS buffer (PBS+2% FBS). The resuspended cells were added to 3799 cell plates at 100 μL/well, and the supernatant was discarded after centrifugation at 300 g. […] The cells were incubated at 4° C. for 1 h. The incubated cells were centrifuged at […] for 5 min and washed twice with FACS buffer. 100 μL Goat anti-Human IgG (H+L) Cross-Adsorbed Secondary Antibody, Alexa Fluor 488 (Sigma, A11013; 1:1000) secondary antibody was added, washed twice with FACS buffer after incubation at 4° C. for 1 h. The cells were resuspended with PBS, then the fluorescence signal of antibodies bound to cell surface was analyzed with FACS (BD FACS CantoTM II) instrument and curves were fitted with GraphPad Prism6 to calculate EC₅₀ values for antibodies binding to BDCA2 antigen.

Row | Binder | EC50 (cynomolgus BDCA2 [1]) [nM] | EC50 (human BDCA2 [2]) [nM] | EC50 (human BDCA2 [3]) [nM] | EC50 [4] [nM] | EC50 (cynomolgus BDCA2 [5]) [nM] | further results
1 | mAb001 (antibody, V domains shown, Mouse hybridoma antibody) VH: QIQLVQSGPELKKPGETVKISCKASGYTFTDFSMHWVKQAPGKGLKWMGWINTETGEPTYADDFKGRFAFSLETSASTAFLQINNLKNDDTTTYFCSRGGDGHPYWYFAVWGAGTTVTVSS VL: DIVLTQSPASLAVSLGQRATISCRASQSVSTSSYSYMHWYQQKPGQPPKLLIKYASILESGVPARFSGSGSGTDFTLNIHPVEEEDTATYYCQHSWEIPFTFGSGTKLEIK | 6.08 | 1.37 |  |  |  | 
2 | mAb002 (antibody, V domains shown, Mouse hybridoma antibody) VH: QIQLVQSGPELKKPGETVKISCRASGYSFTDYSMHWVKQAPGKGLKWVGWINTETGEPTYADDFKGRFALSLETSATSAYLQINNLKNEDTATYFCARGGDGFPYWYFNVWGAGTTVTVSS VL: DIVLTQSPTSLAVSLGQRTNISCRASQSVSTSSNSYIHWYQQKPGQPPKLLIKYASNLDSGVPARFSGSGSGTDFTLNIHPVEEEDTSTYYCQHSWEIPFTFGSGTKLEIK | 7.05 | 1.89 |  |  |  | 
3 | mAb028 (antibody, V domains shown, Mouse hybridoma antibody) VH: DVQLQESGPGLVKPSQSLSLTCSVTGYSISSGYYWNWIRQFPGNKLECMGYISYDGSNYYNPSLKNRISITRDTSKNQFFLSLNSVTTEDTATYFCVRGGDYDDGGFAYWGQGTLVTVSA VL: DIQMTQSPASLSASVGETVTITCRASGNIHNYLAWYQQKQGKSPQLLVYNAKTLADGVPSRFSGSGSETQYSLKINSLQPEDFGNYFCQHFWIIPYTFGGGTKLEIK |  |  | 0.251 | < 0.3 | 0.28 | 
4 | mAb032 (antibody, V domains shown, Mouse hybridoma antibody) VH: DVQLQESGPGLVKPSQSLSLTCSVTGYSITSGYYWNWIRQFPGNKLECMGYISYDGSNYYNPSLKNRISITRDTSKNQFFLSLNSVTTEDTATYFCVRGGDYDDGGFAYWGQGTLVTVSA VL: DIQMTQSPASLSASVGETVTITCRASGNIHNYLAWYQQKQGKSPQLLVYNAKTLADGVPSRFSGSGSETQYSLKINSLQPEDFGNYFCQHFWIIPYTFGGGTKLEIK |  |  | 0.225 | < 0.3 | 0.359 | 
5 | mAb026 (antibody, V domains shown, Mouse hybridoma antibody) VH: DVQLQESGPGLVKPSQSLSLTCSVTGYSITSAYYWNWIRQFPGHKLEWMGYISYDGSNNYNPSLKNRISITRDTSKNQFFLKLNSVTTEDTATYHCARGVDYPNAIDWWGQGTSLTVSS VL: DIVLTQSPTSLTVSLGQRATISCRASESVSIHGTHLMHWYQQKPGQPPKLLIYVASYLESGVPARFSGSGSETDFSLNIHPVEEEDAATYFCQQSFEDPWTFGGGTKLEIK |  |  | 0.773 | < 0.3 | 2.49 | 
6 | mAb005 (antibody, V domains shown, Mouse hybridoma antibody) VH: QVQLKQSGPGLVQPSQSLSITCTVSGFSLTNYGVHWVRQSPGKGLEWLGVIWSGESTDYDAAFISRLSISKDNSKSQVFFKMNSLQADDSAIYYCARRRSHYYGYVMDYWGQGTSVTVSS VL: DIVLTQSPASLAVSLGQRATISCKASQSIDYDGIGYLNWYQHKPGQPPKLLIYAASNLESGIPARFSGSGSGTDFTLNIHPVEEEDAATYYCQQSNEDPPTFGSGTKLEIK | 2.11 | 1.83 |  |  |  | IC50 for inhibiting cytokine IFNα release, CpG-A stimulated human PBMC (human BDCA2 [6]): 0.0867 nM
7 | mab005c (antibody, V domains shown) VH: QVQLKQSGPGLVQPSQSLSITCTVSGFSLTNYGVHWVRQSPGKGLEWLGVIWSGESTDYDAAFISRLSISKDNSKSQVFFKMNSLQADDSAIYYCARRRSHYYGYVMDYWGQGTSVTVSS VL: DIVLTQSPASLAVSLGQRATISCKASQSIDYDGIGYLNWYQHKPGQPPKLLIYAASNLESGIPARFSGSGSGTDFTLNIHPVEEEDAATYYCQQSNEDPPTFGSGTKLEIK |  |  |  |  |  | EC50 (human BDCA2 [7]): 0.964 nM; IC50, inhibition of IFNα secretion, CpG-A stimulated human PBMC (human BDCA2 [6]): 0.00836 nM; EC50 (human BDCA2 [8]): 2.2 nM
